What all share (assay): FXa generation assay
In assay [1] the target is FVIIIa Gly1750Cys/Arg2116Cys (thrombin-activated B domainless factor VIII variant) (UniProt P00451).
Assay [2] addresses FVIIIa Ala1866Cys/Ser2119Cys (thrombin-activated B domainless factor VIII variant) (UniProt P00451).
The target of assay [3] is WT FVIIIa (thrombin-activated B domainless factor VIII) (UniProt P00451).
For assay [4], the target named is FVIIIa Arg2116Val (thrombin-activated B domainless factor VIII variant) (UniProt P00451).
The target in assay [5] is FVIIIa Ser2029Cys/Pro2292Cys (thrombin-activated B domainless factor VIII variant) (UniProt P00451).
The target of assay [6] is FVIIIa Arg2116Ala (thrombin-activated B domainless factor VIII variant) (UniProt P00451).

The term Kd denotes the constant that tells how readily two partners part at equilibrium. A high value points to weaker binding.

Regarding factor IXaβ (enzyme), the Kd in assay [1] came to 0.44 nM; in assay [2], 0.4 nM; in assay [3] it was 0.43 nM; in assay [4] it was 0.4 nM; in assay [5], 0.33 nM; in assay [6] it was 0.45 nM.

These data come from paper PMC3731059.
